The target of series [1] is T1, NF-κB p50 (rhNF-κB) (Homo sapiens, UniProt P19838 P19838:1-433). The series is described as follows: SPR; PBS, 0.05% Nonidet P-40, 2.5 mM DTT, 25 C; Example 3 text gives range 5.7 to 8.7. The note with it: tags: Promega; chain copies: 2 (inferred); hairpin stem with two G-T and three G-A pairs. As for the experimental part:
(§1) The binding ability of each NF-κB p50-binding DNA aptamer clone for NF-κB p50 was determined by the surface plasmon resonance (SPR) method using BIACORE 3000 (GE Healthcare Japan Corp.). The assay in the SPR method was conducted with a temperature set to 25° C. using buffer A as a running buffer. Specifically, DNA probes (21 mer) (SEQ ID NO: 30) each having a nucleotide sequence complementary to the 3′-terminal region of each clone and having a biotinylated base at the 5′ end were immobilized onto a streptavidin-coated sensor chip (SA chip). Then, 60 μL (corresponding to 12 minutes) of a solution of each single-stranded DNA clone (95 mer) diluted to 50 nM with PBS was injected thereto at a flow rate of 5 μL/min to immobilize the clone onto the SA chip through hybridization with the probe.
(§2) Single-stranded DNA variants (68 mer, SEQ ID NOs: 31, 32, and 33; free from a sequence comprising the 5′-terminal primer sequence region) of each NF-κB p50-binding DNA aptamer clone were analyzed for their binding ability by the same SPR method as in Example 2. […] These single-stranded DNA variants used in binding analysis were prepared by chemical synthesis and gel purification. In the diagram, Cont-68 (SEQ ID NO: 34) corresponds to a single-stranded DNA in which the strands of a double-stranded DNA comprising a known NF-κB p50-binding consensus sequence were linked via adenine tetraloop (AAAA). […]
On the technique in general: SPR reads the build-up and loss of mass on a sensor chip optically.

The target in series [2] is T1, NF-κB p50 (rhNF-κB). The series is described as follows: SPR; PBS, 0.05% Nonidet P-40, 2.5 mM DTT, 25 C; dissociation rate 10 times larger than 5R01-68. The conditions noted are these: tags: Promega; chain copies: 2 (inferred); hairpin.
Series [3] deals with T1, NF-κB p50 (rhNF-κB). Nature of the series: SPR; PBS, 0.05% Nonidet P-40, 2.5 mM DTT, 25 C; natural consensus hairpin control. The note with it: tags: Promega, chain copies: 2 (inferred), known NF-κB consensus duplex strands linked via AAAA tetraloop. As for the experimental part:
as §1, §2

The target of series [4] is T1, NF-κB p50 (rhNF-κB). The series is described as follows: SPR; PBS, 0.05% Nonidet P-40, 2.5 mM DTT, 25 C. The note with it: tags: Promega, chain copies: 2 (inferred). On the procedure:
as §1
Single-stranded DNA variants (68 mer, SEQ ID NOs: 31, 32, and 33; free from a sequence comprising the 5′-terminal primer sequence region) of each NF-κB p50-binding DNA aptamer clone were analyzed for their binding ability by the same SPR method as in Example 2. […] These single-stranded DNA variants used in binding analysis were prepared by chemical synthesis and gel purification. In the diagram, Cont-68 (SEQ ID NO: 34) corresponds to a single-stranded DNA in which the strands of a double-stranded DNA comprising a known NF-κB p50-binding consensus sequence were linked via adenine tetraloop (AAAA). For SPR analysis, each of these single-stranded DNAs was immobilized onto the SA chip through hybridization with probes by the injection of 20 μL (corresponding to 1 minute) of a solution of each DNA fragment (68 mer) diluted to 250 nM with PBS at a flow rate of 20 μL/min.

Series [5] addresses T1, NF-κB p50 (rhNF-κB). Nature of the series: SPR; PBS, 0.05% Nonidet P-40, 2.5 mM DTT, 25 C; Example 2 text gives range 2.1 to 3.5 pM. The conditions noted are these: tags: Promega; chain copies: 2 (inferred); hairpin stem with non-Watson-Crick pairs; 95 mer. As for the experimental part: as §1
The target in series [6] is T1, NF-κB p50 (rhNF-κB). Nature of the series: SPR; PBS, 0.05% Nonidet P-40, 2.5 mM DTT, 25 C; immobilized by hybridization to biotinylated probe. The conditions noted are these: tags: Promega; chain copies: 2 (inferred); hairpin stem with non-Watson-Crick G-A and G-T pairs. On the procedure: as §1

T1 sequence (P19838 1-433, one chain of several): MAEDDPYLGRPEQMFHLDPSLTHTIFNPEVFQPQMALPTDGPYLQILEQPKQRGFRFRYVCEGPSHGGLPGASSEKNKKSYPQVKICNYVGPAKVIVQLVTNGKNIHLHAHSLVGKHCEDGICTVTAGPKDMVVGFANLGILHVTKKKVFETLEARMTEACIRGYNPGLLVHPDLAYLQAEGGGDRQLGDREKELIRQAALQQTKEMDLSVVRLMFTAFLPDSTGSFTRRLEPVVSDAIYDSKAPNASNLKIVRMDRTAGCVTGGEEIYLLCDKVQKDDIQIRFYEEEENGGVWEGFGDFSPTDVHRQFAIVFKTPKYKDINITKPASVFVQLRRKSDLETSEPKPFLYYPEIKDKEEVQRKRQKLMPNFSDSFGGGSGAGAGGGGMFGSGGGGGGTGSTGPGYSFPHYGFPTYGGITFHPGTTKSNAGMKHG

B1: 5R01-68 (ssDNA)
DNA: CGGGGAATCACTGTAGGGACATTACGCAGGGGATTCACTAGGAGTGGACTGATACGATCGATTGACAG
As a reminder, the Kd is the constant that tells how readily two partners part at equilibrium. As for B1, the Kd in the series with NF-κB p50 (rhNF-κB) [1] turned out to be 5.4 pM.

B2: 5R01mut-68 (ssDNA)
DNA: CGGGGAATCCCCGTAGGGACATTACGCCGGGGATTCCCCAGGAGTGGACTGATACGATCGATTGACAG
In the case of B2, in the series with NF-κB p50 (rhNF-κB) [2], binding was put at a Kd of 0.14 nM.

B3: Cont-68 (ssDNA)
DNA: CCTTGAAGGGATTTCCCTCCAAAAGGAGGGAAATCCCTTCAAGGTGGACTGATACGATCGATTGACAG
On to B3, for which the affinity in the series with NF-κB p50 (rhNF-κB) [3], expressed as Kd, was 3.5 nM.

B4: 5R05 (ssDNA)
DNA: GTAGTCACTAATCCGTTCGAGTCATGCTGTAACGTAGGGGTTTCACCAACACTGCGGGAAACACTGAAGCGTGGACTGATACGATCGATTGACAG
As for B4, the dissociation constant (Kd) with NF-κB p50 (rhNF-κB) [4] (hairpin stem with non-Watson-Crick pairs, 95 mer) is 2.1 pM.

B5: 5R14-68 (ssDNA)
DNA: CACGGGGTTTCACTGTTTCGTAGATTGCATAAGGGGAAACACTGTGGACTGATACGATCGATTGACAG
As to B5, the Kd in the series with NF-κB p50 (rhNF-κB) [4] (hairpin) was 8.7 pM.

B6: 5R14 (ssDNA)
DNA: GTAGTCACTAATCCGTTCGAGTCATGCCACGGGGTTTCACTGTTTCGTAGATTGCATAAGGGGAAACACTGTGGACTGATACGATCGATTGACAG
For B6, in the series with NF-κB p50 (rhNF-κB) [5], binding was put at a Kd of 6.6 pM.

B7: 5R01 (ssDNA)
DNA: GTAGTCACTAATCCGTTCGAGTCATGCCGGGGAATCACTGTAGGGACATTACGCAGGGGATTCACTAGGAGTGGACTGATACGATCGATTGACAG
Take B7: the Kd with NF-κB p50 (rhNF-κB) [6] turned out to be 3.5 pM.

B8: 5R05-68 (ssDNA)
DNA: TGTAACGTAGGGGTTTCACCAACACTGCGGGAAACACTGAAGCGTGGACTGATACGATCGATTGACAG
In the series with NF-κB p50 (rhNF-κB) [4] (hairpin), B8 came in with a Kd of 7.2 pM.

The values above are taken from patent US20140194320, “METHOD FOR PREPARING NUCLEIC ACID APTAMER” (TAGCYX BITOECNOLOGIES, published 2014).
